This is an account of results in paper PMC5384650.

The term Km denotes the substrate concentration at which the rate is half of its maximum.

Substrate in the data set: NC[C@H](N)C(=O)O
As to the kind of experiment: coupled NADH oxidation assay. Conditions: ATP, Mg2+ used in place of beta-alanine. It counts as biochemical, Salmonella enterica.

B1: pantothenate synthetase (PanC) (Salmonella enterica subsp. enterica serovar Typhimurium str. LT2) (protein)
chain: MLIIETLPLLRQHIRRLRQEGKRVALVPTMGNLHDGHMKLVDEAKARADVVIVSIFVNPMQFDRPDDLVRYPRTLQEDCEKLNKRKVDYVFAPAVEEIYPHGLEGQTYVDVPGLSTMLEGASRPGHFRGVSTIVSKLFNLIQPDIACFGEKDFQQLALIRKMVADMSYDIEIVGVPIIRAKDGLALSSRNAYLTAEQRKIAPGLYNVMNSIAEKLIAGNRELQEIIAIAEQELNEKGFRADDIQIRDADTLLELTETSKRAVILAAAWLGQARLIDNQSVTLAQ
Consider B1, for which the Km was 8.1 mM.
